Assay results taken from the DeepSol protein solubility set.

assay: soluble on expression in E. coli; label from the status in PepcDB or PDB records

Sequence | soluble on expression in E. coli
MIAVVIPAHNEARRLGRCLRAVLVAARQAQQAGLHVEVLVVLDRCSDGSAAVARRFGVHTLEVDAGNVGMARRVGAAHMVERGATWLACTDADSRVPAHWLLSQLACSAEVVCGTVHVEYWQPWQTAALRKLYQSRYQACEGHRHVHGANLGVCADAYERVGGFQPLAAHEDVQLVSDLQASGAQIVWTARHSVATSSRRDSRAREGFGDYLAGLQAQSLEHHHHHH | not soluble
MVQNDETQYIARILDGDTECFSAFLDRYSRPLYVLIVQIVGCSEDAEELVQDVFLKAFRCLGSYRGECRFSTWLYRIAYTTAVSATRKKKQEFLYIEENTINNVPDEKADDILYPTDDEERTARLIQAIDLLNVEEKALITLFYYEEKSIEEIGEVLKLSPGNVKVKLHRTRKKIYVLMNGKE | not soluble
MTLIDCCDPQKPSRVLFHFLILDAPSPSNLPTYIKELQHRGVRHLVRVCGPTYDATLVKSRGIDVHSWPFDDGAPPTRAVLDSWLKLLDTELARQQEDPSVPPPTIGVHCVAGLGRAPILVALALVEYGNVSALDAIALIREKRKGAINQTQMHWITKYKR | not soluble
MEWGVRFYVLSKQEWKQQTIDRCGQFYCLVPSNAGFHVYLFVTMDTGENAVFVFPPHFFIRYRERYWGKHSTLSGKILRKTYLKDNLVMRYGLQPGSEERVTGARIYSASSHGVALGIVLNDEAYLFKTFITYAMTKGEQIPLYMQEKLSMERAQVEYYNTGRLADLVELEERDRKRREMLMAEERRREEKEKRRAAEPGEAYFYVEGPLTLIMPDEEIQEENTGFWQRGTTMFCDSKLIEESQREMRELASVEARIQELKNIPQKAEEKKGVFKRLFGRYF | not soluble
MTVFTPRTDCEVAVIGAGPFGLAAASALKGAGVDALTLGGAMSFWRDHMPRGMRLRSPWHATYIGHTKGPLSLDSYAKVLGISPREPLLLENFVDYGLWIQAQAVPDLDTRKVDRVEKANGGFRLALADGNAIKARRVVVATGLMNQQLIPAVFDGIPRELVSHASEHTGYEAFRGKRVAVIGRGQSACESAVLLKRNGAEVDLVCHGDIHWLGYRALSGKQGWSLRDFLSERLASPSRVGPFPISWLVEVPGVVHRFPEPARAGLNRRSLGAGATGWLKPDFDGIEIRAGSRIISASARDNGIELRFEKDFASFDHVVLGTGYRIDIAKLGLFAPAMLAAIARREGLPLLSAGFESSIPGLHFVGASAVGSFGPLMRFTAGTPFAARTVARFIQRAKDRRYTAALEHHHHHH | not soluble
MAQAFVDATWPQAAKAAQSLGVPAHFLVAQAALETGWGKSQIRNKDGTPSYNLFNIKAGSNWTGKVVEARTVEYENGQRKVRVERFRAYDSYEQAFQDYADLVGNSPRYAKVAGKTDGHAFARALQEGGYATDPSYADKLARVINGNALRQRLMASAASARGLEHHHHHH | soluble
GSHMGPVEILPFLYLGSAYHASKCEFLANLHITALLNVSRRTSEACMTHLHYKWIPVEDSHTADISSHFQEAIDFIDCVREKGGKVLVHSEAGISRSPTICMAYLMKTKQFRLKEAFDYIKQRRSMVSPNFGFMGQLLQYESEILPSTPNPQPPSCQGEAAGSSLIGHLQTLSPDMQGAYCTFPASVLAPVPTHSTVSELSRSPVATATSC | soluble
MGMLGLDLLKEVPGLLEEIKALPLRLDEERFRFWLQQDYPFVEALYRYQVGLLLEAPQAHRAPLVQALMATVEELDWLLLQGASPSAPVHPVRAGYIALLEEMGRLPYAYRVVFFYFLNGLFLEAWAHHVPEEGPWAELSQHWFAPEFQAVLYDLEVLARGLWEDLDPEVVRTYLRRILEAEKATWSLLL | soluble
GPGSGDPYWAYSGAYGPEHWVTSSVSCGGSHQSPIDILDHHARVGDEYQELQLDGFDNESSNKTWMKNTGKTVAILLKDDYFVSGAGLPGRFKAEKVEFHWGHSNGSAGSEHSVNGRRFPVEMQIFFYNPDDFDSFQTAISENRIIGAMAIFFQVSPRDNSALDPIIHGLKGVVHHEKETFLDPFILRDLLPASLGSYYRYTGSLTTPPCSEIVEWIVFRRPVPISYHQLEAFYSIFTTEQQDHVKSVEYLRNNFRPQQALNDRVVSKS | soluble
MGSDKIHHHHHHMTKLAIMSDLHIDLNHFSTFETKTLINLLKKEKIDHLHIAGDISNHFTKDTLPFINNLKKHIKLSYNLGNHDMLDLTETEIQRLDFQTYRFDKKMLLAFHGWYDYSFSNNRDIKDVEKLKKTFWFDRRLKRPNNDVTIQASILKRLDEILAKVDSSNIIIAMHFVPHKQFTMTHPRFSPFNAFLGSQAYHDLFQKYHIKDVVFGHAHRSFGDVKIGETTYHSRPLGYIREWNLTIDFVNQNPNHNPNLTWNLSKRYNAVKHLDSFENYRKKYFEDELRNSMTIFDC | not soluble
MGSDKIHHHHHHMEAADASRSNGSSPEARDARSPSGPSGSLENGTKADGKDAKTTNGHGGEAAEGKSLGSALKPGEGRSALFAGNEWRRPIIQFVESGDDKNSNYFSMDSMEGKRSPYAGLQLGAAKKPPVTFAEKGELRKSIFSESRKPTVSIMEPGETRRNSYPRADTGLFSRSKSGSEEVLCDSCIGNKQKAVKSCLVCQASFCELHLKPHLEGAAFRDHQLLEPIRDFEARKCPVHGKTMELFCQTDQTCICYLCMFQEHKNHSTVTVEEAKAEKETELSLQKEQLQLKIIEIEDEAEKWQKEKDRIKSFTTNEKAILEQNFRDLVRDLEKQKEEVRAALEQREQDAVDQVKVIMDALDERAKVLHEDKQTREQLHSISDSVLFLQEFGALMSNYSLPPPLPTYHVLLEGEGLGQSLGNFKDDLLNVCMRHVEKMCKADLSRNFIERNHMENGGDHRYVNNYTNSFGGEWSAPDTMKRYSMYLTPKGGVRTSYQPSSPGRFTKETTQKNFNNLYGTKGNYTSRVWEYSSSIQNSDNDLPVVQGSSSFSLKGYPSLMRSQSPKAQPQTWKSGKQTMLSHYRPFYVNKGNGIGSNEAP | not soluble
MPITKIHARQIYDSRGNPTVEVDLFTEKGVFRAAVPSGASTGVHEALELRDGDKAVHLGKGVLKAVSNINEKIAPALIAKGFDVTAQKDIDDFMMALDGSENKGNLGANAILGVSLAVAKAGAVHKGLPLYKYIAELAGTGKVVLPVPAFNVINGGSHAGNKLAMQEFMILPVGASSFAEAMRMGSEVYHHLKAEIKKRYGLDATAVGDEGGFAPNIQDNKEGLDLLNTAIDKAGYTGKISIGMDVAASEFFKDGKYDLDFKNPASDSSKWLSGEQLTELYQSFIKEYPVVSIEDAFDQDDWDNWGKFHGATSIQLVGDDLTVTNPKRIQTAIDKKSCNCLLLKVNQIGSVTESIEAAKLSRANGWGVMVSHRSGETEDTFIADLVVGLATGQIKTGAPCRSERLAKYNQLLRIEEELGADAVYAGHNFRNPQV | not soluble
MIKNPKVLILTAHYGNGHVQVAKTLEQTFRQKGIEDVIVCDLFGESHPFITDITKYLYLKSYTIGKELYRLFYYGVEKIYDKKIASWYANFGRKRLKTLLQVEKPDIVINTFPIIAVPELKKQTGISIPVYNVLTDFCVHKIWIHREVDRYFVATDHVKELMVDIGVPAEQIVETGIPIRSSFELKVNPEIIYTKYQLCKNKKILLIVAGAHGVLGNVKELCQSFMSVPNLQVVVVCGKNEALKQDLLSLQKQNSDALKVFGYVENIDELFRVTSCMITKPGGITLSEAAALQVPVILYKPVPGQENENAMYFERKGAAVVIRDDSEVFAKTEALLQDDVKLLQMKEAMKSIYLPEPAGHIVDAILAENHAEPRHIPIKSPALAQSFTLEHHHHHH | not soluble
MSLEQNPVDLDSLTLVNEDELETSVALDNMARRARNGCNEQLKVLCHRIEYLFESKREVNEHNNPLEPRQLVACFSEGLEKLSLDIKARLIILKLFEREVMAETGYLVSEANKVLIDAGVLPEMKSAPIAPAHKPGSRSLANQGNDNVMPTAGNAGVHSNDQVFGLLQELLVTMRGMQARPGDGASDVASEAPMAVMQNGVPYMNGAPLANAASVHQVNSDDLLGVLNRLQRVERSLGEDEGEERADLKTDLSELLDNEHGEAIHALDQADDDVINLVALLFDFILDDEGLPSDIKALLGRLQIPLLKVAIMDKAFFNNDNHEARLLLNMLARAGSQWDPHLGIQDDLYQRINHAVHRIIDDYEDDASLFSSLLQEFQQFFDSQKTRSDRVEQRVREAEEGKARAEQARREVVTVLDNRMAGRQLPDVVVRLLRQGWQQALYLTWLHEGENSPLWQQQVKVVDAVVWSVLEHRDQDALEKLKTLSPKLLKTLHEGLTKINHDAMETKQLLVKFRDVHHRLLKGLQTERVAVEPELPAQRAQPETAPELPENHFLVKKCSQLAPGQWIEIQDNDEPRRAKLAANIRAGVKIVFTNRRGIKVQEYSAYTLAVALHNGAVKLIDEGALFDRALEAVIGDLRRMQGNEGHHHHHH | not soluble
MSLSDDSTFGDATFVVLDFETTGLDPQVDEIIEIGAVKIQGGQIVDEYHTLIKPSREISRKSSEITGITQEMLENKRSIEEVLPEFLGFLEDSIIVAHNANFDYRFLRLWIKKVMGLDWERPYIDTLALAKSLLKLRSYSLDSVVEKLGLGPFRHHRALDDARVTAQVFLRFVEMMKKEGHHHHHH | soluble
MYVTVTEAAYKKIMDTIPSEAKYIKLFYDNEGCGCVMSGIIDLVAVAEKDERDVDIESSTMNFIADRTKLVFMDDKLTVDWHEGGGTFQLKSPSQFYNPNMKLHVRV | not soluble
